Source: paper PMC7179087 (Biochemistry, 2019)

Key:
Conditions in all cases: adenylation; co-substrate ATP
PvfC-AWH6 = test: ATP-[…]PPi exchange, steady-state kinetics; assay type: biochemical, Pseudomonas fluorescens
PvfCPf0-1 = test system: PvfCPf0-1
CC(C)[C@H](N)C(=O)O [1] = test: purified protein
CC[C@H](C)[C@H](N)C(=O)O [2] = test: purified protein
CC(C)C[C@H](N)C(=O)O [3] = test: purified protein
CC(C)[C@H](N)C(=O)O [4] = test: purified protein; assay type: biochemical, Pseudomonas entomophila
CC(C)C[C@H](N)C(=O)O [5] = test: purified protein; assay type: biochemical, Pseudomonas entomophila
CC[C@H](C)[C@H](N)C(=O)O [6] = test: purified protein; assay type: biochemical, Pseudomonas entomophila

Work on `CC(C)C[C@H](N)C(=O)O` [L-Leu] yielded a Km (PvfC-AWH6) of 2100 ± 600 µM.
`CC(C)[C@H](N)C(=O)O` [L-Val] showed a Km (PvfCPf0-1) of 2400 ± 800 µM.
In the case of PvfCL48 (Pseudomonas entomophila L48), the Km (CC(C)[C@H](N)C(=O)O [1]) is reported as 1200 ± 800 µM, the kcat (CC(C)[C@H](N)C(=O)O [1]) is reported as 13.1 ± 0.7 s⁻¹ and the kcat/Km (CC(C)[C@H](N)C(=O)O [1]) is reported as 11000 M⁻¹ s⁻¹. For the same compound, the Km (CC[C@H](C)[C@H](N)C(=O)O [2]) was 8000 ± 2000 µM, the kcat (CC[C@H](C)[C@H](N)C(=O)O [2]) was 1.3 ± 0.2 s⁻¹ and the kcat/Km (CC[C@H](C)[C@H](N)C(=O)O [2]) was 160 M⁻¹ s⁻¹. The Km (CC(C)C[C@H](N)C(=O)O [3]) was 7000 ± 3000 µM, the kcat (CC(C)C[C@H](N)C(=O)O [3]) was 0.65 ± 0.1 s⁻¹ and the kcat/Km (CC(C)C[C@H](N)C(=O)O [3]) was 93 M⁻¹ s⁻¹.
“PvfCL48 (Pseudomonas entomophila L48; A381S/I467L/L384I/V444M)” showed a Km (CC(C)[C@H](N)C(=O)O [4]) of 1200 ± 700 µM, a kcat (CC(C)[C@H](N)C(=O)O [4]) of 0.03 ± 0.01 s⁻¹ and a kcat/Km (CC(C)[C@H](N)C(=O)O [4]) of 25 M⁻¹ s⁻¹. The Km (CC(C)C[C@H](N)C(=O)O [5]) was 15000 ± 9000 µM, the kcat (CC(C)C[C@H](N)C(=O)O [5]) was 2.2 ± 0.8 s⁻¹ and the kcat/Km (CC(C)C[C@H](N)C(=O)O [5]) was 150 M⁻¹ s⁻¹.
For “PvfCL48 (Pseudomonas entomophila L48; V444I)”, the Km (CC(C)[C@H](N)C(=O)O [4]) was 1500 ± 200 µM, the kcat (CC(C)[C@H](N)C(=O)O [4]) was 10.7 ± 0.5 s⁻¹ and the kcat/Km (CC(C)[C@H](N)C(=O)O [4]) was 7100 M⁻¹ s⁻¹. For the same compound, the Km (CC[C@H](C)[C@H](N)C(=O)O [6]) was 3700 ± 700 µM, the kcat (CC[C@H](C)[C@H](N)C(=O)O [6]) was 1.2 ± 0.09 s⁻¹ and the kcat/Km (CC[C@H](C)[C@H](N)C(=O)O [6]) was 320 M⁻¹ s⁻¹. For the same compound, the Km (CC(C)C[C@H](N)C(=O)O [5]) was 3000 ± 1000 µM, the kcat (CC(C)C[C@H](N)C(=O)O [5]) was 0.71 ± 0.09 s⁻¹ and the kcat/Km (CC(C)C[C@H](N)C(=O)O [5]) was 240 M⁻¹ s⁻¹.
